Source: US12344663B2, “Anti-C3 antibodies and antigen-binding fragments thereof and their uses for treating eye or ocular diseases” (CDR-Life AG, priority 2021, dated 2025)
Where a chain is given by its changes, count along the chain named.

B1: Clone XIII: scFv combining affinity maturation substitutions and disulfide bond stabilization, SEQ ID NO: 41 (protein)
scFv: MQLVLTQSPSASASLGASVKLTCTLSSAHKTYTIDWYQQQPEKCPRYLMQLKSEGSYTKGTGVPDRFSGSSSGAERYLTISSLQSEDEADYYCGTEGVGGYVFGGGTKLTVLGGGGGSGGGGSGGGGSGGGGSQVQVVESGGGSVQPGRSLRLSCAVSGFSLYNYAMNWVRQAPGKGLEWIGIINVGGGTNYASWAKGRFTISTDNSKNTVYLQMNSLRAEDTASYYCARAVGYHHARLDPWGCGTSVTVSS
modifications: ScFv
B2: Clone XIV: scFv combining affinity maturation substitutions and disulfide bond stabilization, SEQ ID NO: 42 (protein)
scFv: B1 scFv with A237S
modifications: ScFv
B3: Clone IV: rabbit-derived parental anti-C3 antibody, SEQ ID NO: 32 (protein)
chain: QSVKESGGRLVTPGTPLTLTCTVSGFSLYNYAMNWVRQAPGKGLEWIGIINTDGNTNYASWAKGRFTISTTSSTTVDLKITSPTTEDTATYFCPRAVGYHHHALDPWGPGTLVTVSSGGGGSGGGGSGGGGSGGGGASELVLTQSPSVSAALGASAKLTCTLSSAHKTYTIDWYQQQQGEAPRYLMQLKSDGSYTKGTGVPDRFSGSSSGADRYLIIPSVQADDEADYYCGTDYGGGYVFGGGTQLTVTG
modifications: scFv
B4: Clone VI: Clone V with additional rabbit residues replaced by germline, SEQ ID NO: 34 (protein)
scFv: MQLVLTQSPSASASLGASVKLTCTLSSAHKTYTIDWYQQQPEKGPRYLMQLKSDGSYTKGTGVPDRFSGSSSGAERYLTISSLQSEDEADYYCGTDYGGGYVFGGGTKLTVLGGGGGSGGGGSGGGGSGGGGSQVQVVESGGGSVQPGRSLRLSCAASGFSLYNYAMNWVRQAPGKGLEWIGIINTDGNTNYASWAKGRFTISTDNSKNTLYLQMNSLRAEDTASYYCARAVGYHHHALDPWGQGTSVTVSS
modifications: ScFv
B5: Clone XII: scFv combining affinity maturation substitutions and disulfide bond stabilization, SEQ ID NO: 40 (protein)
scFv: B1 scFv with E96D, G97Y, V98G
modifications: ScFv
B6: Beovu: comparator in EpiMatrix table; brolucizumab is a scFv (antibody, chains of the INN, looked up, V domains shown)
VH: EVQLVESGGGLVQPGGSLRLSCTASGFSLTDYYYMTWVRQAPGKGLEWVGFIDPDDDPYYATWAKGRFTISRDNSKNTLYLQMNSLRAEDTAVYYCAGGDHNSGWGLDIWGQGTLVTVSS
VL: EIVMTQSPSTLSASVGDRVIITCQASEIIHSWLAWYQQKPGKAPKLLIYLASTLASGVPSRFSGSGSGAEFTLTISSLQPDDFATYYCQNVYLASTNGANFGQGTKLTVL
modifications: scFv
notes: brolucizumab is a scFv

Experiments:
[1] = Thermal stability by differential scanning fluorimetry (DSF); assay type: physicochemical; conditions: for Melting temperature: DSF, Example 4
Excerpt: Differential scanning fluorimetry (DSF) measures protein unfolding by monitory changes in fluorescence as a function of temperature.
The temperature of protein unfolding (Tm) is tied to the stability of antibodies, specifically to aggregation during storage and long-term stability of the therapeutic product. The thermal transitions of monoclonal antibody CH2 and CH3 domains are typically invariant for different antibodies within an isotype, with the CH2 domain unfolding prior to the CH3 domain.

[2] = Concentration-dependent monomeric stability study at 37° C.; assay type: physicochemical; conditions: for Loss in monomeric content after 2 weeks of incubation at 37° C.: Clone XIII at 150 mg/mL, Clone XIV at 50 mg/mL; for Loss in monomeric content with concentration: Clone XIII concentrated to 150 mg/mL, Clone XIV to 50 mg/mL
Alternative Pathway = experiment: WEISLAB Complement system Screen, alternative pathway MAC (C5b-C9) formation; assay type: biochemical, human; conditions: single dose of 2 μM; AP-dependent MAC formation
Procedure: (§1) To identify antibodies that block all 3 complement pathways, antibodies are screened using an enzyme immunoassay for the qualitative determination of functional classical, lectin and alternative complement pathways in human serum using the WEISLAB® Complement system Screen (Svar Life Science AB, Malmö, Sweden).
(§2) To monitor inhibition of the complement system in human serum, the scFv of the invention or the comparator molecules are tested using an enzyme immunoassay for the qualitative determination of functional classical, lectin and alternative complement pathways in human serum using the WEISLAB® Complement system Screen (Svar Life Science AB, Malmö, Sweden), following the supplier's instructions. The amount of C5b-C9 neoantigen generated is proportional to the functional activity of complement pathways. The scFv of the invention and the comparator molecules are tested in a concentration response curve and the IC50 for the inhibition is calculated using the GraphPadPrism software and a non-linear, 4 parameters curve regression.

Lectin Pathway = experiment: WEISLAB Complement system Screen, lectin pathway MAC (C5b-C9) formation; assay type: biochemical, human; conditions: single dose of 2 μM; LP-dependent MAC formation
Procedure: as §1, §2

Classical Pathway = experiment: WEISLAB Complement system Screen, classical pathway MAC (C5b-C9) formation; assay type: biochemical, human; conditions: single dose of 2 μM; CP-dependent MAC formation
Procedure: as §1, §2

human C3 = human C3 (Homo sapiens, UniProt P01024); experiment: SPR (Biacore T100) binding to human C3; conditions: C3 and C3b; in words
Procedure: The kinetic parameters of the candidates are determined using a surface plasmon resonance (SPR) and Biacore T100 device. C3 and different variants thereof (Table 19) are immobilized as a ligand on a HC30M SPR sensor chip (XanTec bionanalytics, Germany) using EDC/[…] linking chemistry. Five increasing concentrations of each molecule (analyte) are consecutively injected using the single cycle kinetics (SCK) mode to determine the kinetic parameters. Regeneration between the candidates is done with 10 mM glycine*HCl, 2 M NaCl, pH 3.5. The data is fitted to a 1:1 Langmuir binding model and the kinetic parameters of on-rate (ka), off-rate (kd), and affinity […] were determined.

[3] = 40 nmol IVT, scFv versus Fab (ranibizumab); in words; cited from earlier work

human C3, sequence (P01024 23-1663): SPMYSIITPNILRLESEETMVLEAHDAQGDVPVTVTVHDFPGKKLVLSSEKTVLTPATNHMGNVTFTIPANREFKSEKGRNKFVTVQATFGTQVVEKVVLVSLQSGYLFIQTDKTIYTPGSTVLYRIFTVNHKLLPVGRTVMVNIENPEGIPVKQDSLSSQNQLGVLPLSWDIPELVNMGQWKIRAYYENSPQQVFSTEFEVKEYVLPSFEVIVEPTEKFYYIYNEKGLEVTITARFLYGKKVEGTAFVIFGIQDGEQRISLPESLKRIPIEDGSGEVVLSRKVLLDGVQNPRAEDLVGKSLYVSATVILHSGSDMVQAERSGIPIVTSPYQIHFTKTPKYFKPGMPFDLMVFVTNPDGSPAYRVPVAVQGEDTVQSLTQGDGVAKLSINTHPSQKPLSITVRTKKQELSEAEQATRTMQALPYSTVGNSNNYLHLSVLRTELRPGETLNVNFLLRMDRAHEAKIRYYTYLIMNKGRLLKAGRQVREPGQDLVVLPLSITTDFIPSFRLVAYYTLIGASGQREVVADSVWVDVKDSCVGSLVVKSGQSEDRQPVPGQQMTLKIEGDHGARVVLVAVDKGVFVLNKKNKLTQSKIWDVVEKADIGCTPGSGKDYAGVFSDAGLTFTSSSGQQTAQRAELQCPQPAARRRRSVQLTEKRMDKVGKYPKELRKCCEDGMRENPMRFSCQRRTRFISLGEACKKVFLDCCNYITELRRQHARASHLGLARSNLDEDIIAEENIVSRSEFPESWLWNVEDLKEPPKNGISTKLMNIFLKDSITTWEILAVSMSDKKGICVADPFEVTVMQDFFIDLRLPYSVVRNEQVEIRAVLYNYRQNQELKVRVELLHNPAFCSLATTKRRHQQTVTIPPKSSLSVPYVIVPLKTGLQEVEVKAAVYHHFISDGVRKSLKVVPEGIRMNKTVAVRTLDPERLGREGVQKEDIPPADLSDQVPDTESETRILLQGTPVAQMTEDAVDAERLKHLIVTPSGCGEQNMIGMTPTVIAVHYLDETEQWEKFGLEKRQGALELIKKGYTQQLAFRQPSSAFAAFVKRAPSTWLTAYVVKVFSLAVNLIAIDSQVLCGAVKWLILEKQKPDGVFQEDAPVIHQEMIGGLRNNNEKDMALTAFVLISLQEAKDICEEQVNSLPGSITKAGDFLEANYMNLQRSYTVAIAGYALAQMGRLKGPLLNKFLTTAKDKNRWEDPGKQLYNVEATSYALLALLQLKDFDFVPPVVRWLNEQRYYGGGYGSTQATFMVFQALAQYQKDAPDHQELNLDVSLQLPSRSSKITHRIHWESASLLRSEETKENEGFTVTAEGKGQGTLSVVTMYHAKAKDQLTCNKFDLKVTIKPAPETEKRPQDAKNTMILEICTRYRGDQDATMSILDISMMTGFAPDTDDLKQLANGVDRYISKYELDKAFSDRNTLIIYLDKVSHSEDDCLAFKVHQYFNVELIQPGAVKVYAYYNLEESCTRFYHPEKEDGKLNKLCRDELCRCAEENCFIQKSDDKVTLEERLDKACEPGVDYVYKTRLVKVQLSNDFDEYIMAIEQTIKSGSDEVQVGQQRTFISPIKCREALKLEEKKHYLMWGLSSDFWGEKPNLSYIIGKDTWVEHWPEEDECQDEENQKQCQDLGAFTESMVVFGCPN

Row | Molecule | Melting temperature [1] [°C] | Loss in monomeric content after 2 weeks of incubation at 37° C. [2] [%] | Loss in monomeric content with concentration [2] | further results
1 | B1 | 67.7 | 2.2 | no loss | –
2 | B2 | 67.2 | 2.3 | 1.6% | –
3 | B3 | – | – | – | Residual alternative pathway complement activity with Clone IV [%] (Alternative Pathway): −0.1 ± 0.2%; Residual lectin pathway complement activity with Clone IV [%] (Lectin Pathway): 0.5 ± 0.9%; Residual classical pathway complement activity with Clone IV (Classical Pathway): 2.9 ± 0.0%
4 | B4 | – | – | – | Increase of thermal stability of the construct ([1]; versus preceding variant): 11.7 °C; Binding affinity to C3 and C3b compared to parental molecule Clone IV (human C3): comparable to the parental molecule
5 | B5 | 70.4 | – | – | –
6 | B6 | – | – | – | Retinal penetration after equimolar intravitreal injection [3]: improved retinal penetration
